Assay results from patent US20220153803.

Sequence of phospho-Ser^8-glucagon (chain, as listed by the source): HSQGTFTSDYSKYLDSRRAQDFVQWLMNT

bovine alkaline phosphatase was tested. Which Dephosphorylation T50 (mins.) pH 7.4 (phospho-Ser^8-glucagon) did it give?
The Dephosphorylation T50 (mins.) pH 7.4 was 94.9 min.

And the Dephosphorylation T50 (mins.) pH 7.4 (phospho-Thr^5-glucagon)?
The Dephosphorylation T50 (mins.) pH 7.4 was 85.9 min.
